Legend:
Test in all cases: ELISA, antigen coated at 10 µg/ml
[1] = target: BoNT/A HN, recombinant translocation domain of botulinum neurotoxin serotype A (Clostridium botulinum, UniProt P0DPI0 449-870)
[2] = target: T1, botulinum neurotoxin serotype B (BoNT/B) (UniProt P10844 2-1291)
T1 sequence: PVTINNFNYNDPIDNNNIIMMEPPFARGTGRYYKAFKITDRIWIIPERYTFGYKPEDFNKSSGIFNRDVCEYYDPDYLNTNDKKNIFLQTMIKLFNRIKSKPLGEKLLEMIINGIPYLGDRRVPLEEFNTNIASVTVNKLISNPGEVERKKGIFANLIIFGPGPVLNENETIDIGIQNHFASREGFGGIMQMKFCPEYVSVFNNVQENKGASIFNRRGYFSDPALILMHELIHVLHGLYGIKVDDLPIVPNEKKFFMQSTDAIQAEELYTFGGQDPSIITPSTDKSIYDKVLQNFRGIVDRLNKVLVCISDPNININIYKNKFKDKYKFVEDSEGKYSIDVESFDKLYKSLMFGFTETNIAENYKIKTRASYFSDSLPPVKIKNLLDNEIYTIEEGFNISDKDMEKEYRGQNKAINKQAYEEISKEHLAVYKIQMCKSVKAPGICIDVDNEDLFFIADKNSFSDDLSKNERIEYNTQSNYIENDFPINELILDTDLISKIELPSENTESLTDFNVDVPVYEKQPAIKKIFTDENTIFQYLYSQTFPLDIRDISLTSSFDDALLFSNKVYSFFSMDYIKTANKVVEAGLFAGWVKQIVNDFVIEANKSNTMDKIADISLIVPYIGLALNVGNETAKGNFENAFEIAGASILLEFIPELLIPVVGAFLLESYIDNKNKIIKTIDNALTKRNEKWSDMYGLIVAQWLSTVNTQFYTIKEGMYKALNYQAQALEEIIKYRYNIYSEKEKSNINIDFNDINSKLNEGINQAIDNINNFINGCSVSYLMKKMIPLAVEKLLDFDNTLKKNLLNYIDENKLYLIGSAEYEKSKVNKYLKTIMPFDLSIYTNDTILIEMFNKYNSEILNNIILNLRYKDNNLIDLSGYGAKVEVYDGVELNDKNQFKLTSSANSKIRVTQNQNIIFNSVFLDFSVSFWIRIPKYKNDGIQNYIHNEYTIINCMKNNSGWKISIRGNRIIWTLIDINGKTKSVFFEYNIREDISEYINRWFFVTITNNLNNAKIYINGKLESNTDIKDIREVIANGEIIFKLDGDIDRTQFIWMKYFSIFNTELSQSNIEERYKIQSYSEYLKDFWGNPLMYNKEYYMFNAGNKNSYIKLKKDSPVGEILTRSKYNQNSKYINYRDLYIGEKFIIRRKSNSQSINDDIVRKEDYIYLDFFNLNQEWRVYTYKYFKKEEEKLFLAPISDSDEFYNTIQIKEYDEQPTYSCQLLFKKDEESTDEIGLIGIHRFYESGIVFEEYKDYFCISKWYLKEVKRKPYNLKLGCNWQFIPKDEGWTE

[3] = target: T2, botulinum neurotoxin serotype C (BoNT/C) (UniProt P18640 2-1291)
T2 sequence: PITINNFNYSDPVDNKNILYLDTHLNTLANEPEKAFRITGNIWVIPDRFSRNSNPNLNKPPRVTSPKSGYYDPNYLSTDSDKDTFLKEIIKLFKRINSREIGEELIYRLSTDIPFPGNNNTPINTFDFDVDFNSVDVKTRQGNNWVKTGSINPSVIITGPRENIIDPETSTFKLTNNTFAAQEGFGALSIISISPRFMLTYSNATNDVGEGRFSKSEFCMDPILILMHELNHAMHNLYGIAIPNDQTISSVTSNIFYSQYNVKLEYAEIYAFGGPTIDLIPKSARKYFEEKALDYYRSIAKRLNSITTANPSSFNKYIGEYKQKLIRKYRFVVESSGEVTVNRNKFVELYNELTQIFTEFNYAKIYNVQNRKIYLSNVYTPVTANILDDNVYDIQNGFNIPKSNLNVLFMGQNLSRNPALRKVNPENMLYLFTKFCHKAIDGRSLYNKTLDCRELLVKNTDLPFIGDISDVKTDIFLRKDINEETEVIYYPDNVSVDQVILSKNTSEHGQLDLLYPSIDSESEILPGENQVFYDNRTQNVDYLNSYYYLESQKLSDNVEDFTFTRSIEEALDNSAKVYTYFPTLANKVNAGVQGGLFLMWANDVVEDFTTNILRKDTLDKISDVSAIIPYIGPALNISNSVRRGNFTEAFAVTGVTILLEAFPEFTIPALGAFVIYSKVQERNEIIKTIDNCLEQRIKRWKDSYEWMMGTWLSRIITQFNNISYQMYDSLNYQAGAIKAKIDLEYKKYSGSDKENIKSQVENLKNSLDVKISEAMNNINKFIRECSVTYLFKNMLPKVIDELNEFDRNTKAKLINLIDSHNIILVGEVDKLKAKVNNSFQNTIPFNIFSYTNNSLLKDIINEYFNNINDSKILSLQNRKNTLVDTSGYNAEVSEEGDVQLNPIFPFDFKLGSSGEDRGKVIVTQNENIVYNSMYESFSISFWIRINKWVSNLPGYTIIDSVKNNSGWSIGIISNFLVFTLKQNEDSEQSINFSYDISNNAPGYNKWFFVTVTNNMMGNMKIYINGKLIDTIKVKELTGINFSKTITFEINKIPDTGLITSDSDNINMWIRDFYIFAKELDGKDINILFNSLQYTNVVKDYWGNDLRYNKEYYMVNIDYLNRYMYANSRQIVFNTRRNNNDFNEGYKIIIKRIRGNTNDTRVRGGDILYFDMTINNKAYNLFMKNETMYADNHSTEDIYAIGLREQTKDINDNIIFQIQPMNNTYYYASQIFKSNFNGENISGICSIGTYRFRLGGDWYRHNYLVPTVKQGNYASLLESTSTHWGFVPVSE

[4] = target: T3, botulinum neurotoxin serotype E (BoNT/E) (UniProt Q00496 2-1251)
T3 sequence: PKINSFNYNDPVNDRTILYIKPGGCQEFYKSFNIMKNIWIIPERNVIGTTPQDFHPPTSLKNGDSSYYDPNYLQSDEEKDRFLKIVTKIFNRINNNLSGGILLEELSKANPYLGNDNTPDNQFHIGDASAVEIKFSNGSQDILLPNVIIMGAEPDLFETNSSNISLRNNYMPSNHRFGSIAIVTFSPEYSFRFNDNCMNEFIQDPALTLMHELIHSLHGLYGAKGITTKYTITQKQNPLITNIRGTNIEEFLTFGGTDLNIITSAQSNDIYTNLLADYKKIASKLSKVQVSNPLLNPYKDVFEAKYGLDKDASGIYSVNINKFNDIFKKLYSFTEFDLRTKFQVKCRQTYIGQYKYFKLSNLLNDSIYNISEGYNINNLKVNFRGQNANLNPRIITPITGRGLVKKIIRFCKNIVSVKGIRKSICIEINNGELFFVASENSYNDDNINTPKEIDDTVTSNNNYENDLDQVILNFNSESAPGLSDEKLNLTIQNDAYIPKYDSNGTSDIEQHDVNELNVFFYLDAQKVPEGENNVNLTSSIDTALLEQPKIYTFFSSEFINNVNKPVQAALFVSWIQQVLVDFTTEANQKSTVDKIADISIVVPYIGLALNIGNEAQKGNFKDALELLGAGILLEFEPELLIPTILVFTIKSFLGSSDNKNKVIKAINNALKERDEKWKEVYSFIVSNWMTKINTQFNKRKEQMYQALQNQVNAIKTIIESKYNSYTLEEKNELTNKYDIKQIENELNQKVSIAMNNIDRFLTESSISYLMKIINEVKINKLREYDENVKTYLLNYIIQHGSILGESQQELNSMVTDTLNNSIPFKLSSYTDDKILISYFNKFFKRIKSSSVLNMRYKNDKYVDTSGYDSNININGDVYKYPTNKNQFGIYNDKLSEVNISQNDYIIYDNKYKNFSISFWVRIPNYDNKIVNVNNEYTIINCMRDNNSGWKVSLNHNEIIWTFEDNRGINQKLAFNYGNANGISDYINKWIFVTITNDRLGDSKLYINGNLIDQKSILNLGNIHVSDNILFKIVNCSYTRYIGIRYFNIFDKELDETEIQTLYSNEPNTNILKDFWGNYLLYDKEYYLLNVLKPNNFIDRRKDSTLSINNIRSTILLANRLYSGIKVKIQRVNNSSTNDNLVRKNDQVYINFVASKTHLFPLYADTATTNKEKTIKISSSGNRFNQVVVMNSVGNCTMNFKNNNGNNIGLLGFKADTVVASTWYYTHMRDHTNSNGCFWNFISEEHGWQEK

Measured: binding result

Chain of BoNT/A HN, recombinant translocation domain of botulinum neurotoxin serotype A (P0DPI0 449-870 limits assumed): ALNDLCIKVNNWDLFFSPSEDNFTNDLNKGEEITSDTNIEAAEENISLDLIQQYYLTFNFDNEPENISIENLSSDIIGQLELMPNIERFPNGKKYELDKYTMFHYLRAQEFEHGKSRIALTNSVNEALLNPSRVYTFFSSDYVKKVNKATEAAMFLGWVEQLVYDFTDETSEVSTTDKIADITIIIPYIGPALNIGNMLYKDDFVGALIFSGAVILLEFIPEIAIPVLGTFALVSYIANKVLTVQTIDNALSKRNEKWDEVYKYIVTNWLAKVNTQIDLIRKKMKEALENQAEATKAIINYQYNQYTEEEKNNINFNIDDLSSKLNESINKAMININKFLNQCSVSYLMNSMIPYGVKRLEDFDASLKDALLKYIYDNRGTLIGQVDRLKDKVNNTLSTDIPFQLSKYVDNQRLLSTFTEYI

B1: scFv 3D12 (human, immune library) (scFv, V domains shown)
VH: QVQLVQSGGGVVHPGRSLKLSCAGSGFTFSDYDMHWVRQAPGKGLEWVAVMWFDGTEKYSAESVKGRFTISRDNSKNTLFLQMNSLRADDTAVYYCAREPDWLLWGDRGALDVWGQGTTVTVSS
VL: DIVMTQSPSTLSASVGDRVTITCRASQSISSWLAWYQQKPGKAPKLLMYEASSLESGVPSRFSGSGSGTEFTLTISSLQPDDFAAYYCQHYNTYPYTFGQGTKLEIKR
no binding: all assays above

Source: patent publication US20090324606A1 (published 2009)
